Source: PMC7117912

Tests used:
[1] = target: H2-D^b (mouse MHC I heavy chain ectodomain) refolded with human β2-microglobulin (mouse | human); assay: SEC
[2] = target: HLA-A*02:01 (human MHC I heavy chain ectodomain, amino acids 1-278) refolded with human β2-microglobulin (human)
[3] = target: H2-D^b (mouse MHC I heavy chain ectodomain) refolded with human β2-microglobulin (mouse | human); assay: fluorescence polarisation
[4] = target: HLA-A*02:01 (human MHC I heavy chain ectodomain, amino acids 1-278) refolded with human β2-microglobulin (human); assay: fluorescence polarisation

Row | Substance | reduction of the amount of complex against TAPBPR^wt (SEC peak area) [1] | dissociation rate constant of fluorescent peptide FLPSDC*FPSF from HLA-A*02:01 (300 nM) with 1 µM TAPBPR and 1000-fold excess of competitor peptide (uncatalyzed 1.90 × 10^-3 s^-1) [2] | percent of fluorescent peptide released at 1 µM TAPBPR [3] | dissociation rate constant of fluorescent peptide FLPSDC*FPSF from HLA-A*02:01 (300 nM) with 1 µM TAPBPR and 1000-fold excess of competitor peptide [2] | percent of total MHC I-associated peptide dissociated at saturation (3 µM TAPBPR) [4] | percent of total MHC I-associated peptide dissociated at saturation (3 µM TAPBPR) [3]
1 | TAPBPR^Tsn-SL (human TAPBPR lumenal domain with the scoop loop replaced by the corresponding shorter loop of tapasin) (from UniProt Q9BX59 33-401) (domain or fragment) | 40% | 0.0263 s⁻¹ | 12% |  |  | 
2 | TAPBPR^wt (wildtype human TAP-binding protein-related, ER-lumenal domain) (from UniProt Q9BX59 33-401) (domain or fragment) |  |  | 60% | 0.0158 s⁻¹ | 80% | 70%
3 | TAPBPR^ΔSL (human TAPBPR lumenal domain with the scoop loop replaced by three glycine residues) (from UniProt Q9BX59 33-401) (domain or fragment) | 90% |  |  | 0.00852 s⁻¹ |  | 
